Earlier results on two substances are cited in PMC8616177.

pKd: −log10 of the molar value. Where two headings read alike, the source gives them in different places.

Data set [1] addresses EGFR (Homo sapiens) (UniProt P00533).
For data set [2] the target is unchanged. This is another data set of the same source.

As a reminder, the pKd is the Kd on a negative log10 scale, so that one unit is a factor of ten. On to GE11, for which the pKd with EGFR (Homo sapiens) [1] was 7.66.
EGF (from UniProt P01133): the pKd in the data set with EGFR (Homo sapiens) [2] is 8.82.
